The nanobody polyreactivity screen of Harvey et al. (2022)

Experiment: yeast display, Sf9 membrane polyspecificity reagent, FACS + sequencing; frameworks hold sequencing errors
Outline: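 Using colony PCR, genes from sorted yeast display clones were amplified, then sequenced on MiSeq at 2 × 250 and filtered by CDR length. The clones had been stained with 10% biotinylated, detergent-solubilized Sf9 membrane reagent for 1 hour at 4 °C and sorted by FACS into low and high (top ~1%) gates on anti-HA and streptavidin fluorescence. Polyreactivity labels come from the gate of origin.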

Sequence | polyreactivity (PSR sort gate)
QVQLEESGGCIVQAGGSHRLSCAASGRTFTLNAMGWYRQAPGKEREFVAAISNSGVRTYYADSVKGRFTISRDNAKNTVFLQMNSLKPEDTGVYYCARTYQVGDSIDDYWGQGTQVNVSS | low polyreactivity
QVQLVESGGGLVQAGGSLRLSCAASVSTFPGYAMGWYRQAPGKERELVAAISTSGGRTYYADSVKGRFTISRDNAKNTVYLQMNSLKPEDTAVYYCAARDTRSPYSGTQVEYWGQGTQVTVSS | low polyreactivity
QVQLVESGGGLVQAGGSLRLSCAASGSTFYAYAMGWYRQAPGKERELVAVITSSGSTYYADSVKGRFTISRDNAKNTVYLQMNSLKPEDTAVYYCAAKRLSQSRRTQFRTRYPPMYYWGQGTQVTVSS | high polyreactivity
QVQLVESGGGLVQAGGSLRLSCAASGSTFTRYAMGWYRQAPGKERELVASISRSGNTYYADSVKGRFTISRDNAKNTVYLQMNSLKPEDTAVNYCAAKRKSYYSYNFDYWGQGTQVTVSS | high polyreactivity
QVQLVESGGGLVQAGGSLRLSCAASGSIFGVYAMGWYRQAPGKERELVAAIDSGSSTDYADSVKGRFTISRDNAKNTVYLQMNSLKPEDTAVYYCYPLDLAPVDYWGQGTQVTVSS | low polyreactivity
QVQLVESGGGLVQAGGSLRLSCAASGRIFHYYAMGWYRQAPGKERELVAAISNTDGSTYYADSVKGRFTISRDNAKYTVYLQMNSLKPEDTAVYYCAADSLGALYRGNYPYGYWGQGTQVNVSS | high polyreactivity
QVQLVESGGGLVQAGGSLRLSCAASGRTFRGNAMGWYRQAPGKERELVAAISRSGGRTYYADSVKGRFTISRDNAKNTVYLQMNSLKPEDTAVYYCNARSYRRWGYYKQAPNGDYWGQGTQVTVSS | high polyreactivity
QVQLVESGGGLVQAGGSLRLSCAASGSTFGNNTMGWYRQAPGKEREFVAAITESGGGTYADSVKGRFTISRDNAKNTVYLQMNSLKPEDTAVYYCAAVWYIWPFAFYYWGQGTQVTVSS | high polyreactivity
HVQLVESGGGLVQAGGSLRLSCAASGRILVHNAMGWYRQAPGKERELVAVITARGASTYYADSVKGRFTISRDNAKNSVYLQMNSLKPEDTAVYYCATDKRPKYYNQYDYWGQGTQVTVSS | low polyreactivity
QVQLVESGGALVQAGGSLRLSCAASGFFIFTYAMGWYRQAPGKERELVAAISSRGGSTYYADSVKGRFTISRDNAKNTVYLQMNRLKPEDTAVYYCAAQAYGRYPYGYWGHGTQVTVSS | high polyreactivity
QVQLVESGGGLVQAGGSLRLSCAASGRIFVWYAMGWYRQATGKERELVAAITRGGSTNYADSVKGRFTISRDNAKNTVYLQMNSLKPEDTAVYYCAARSPYRTRNDYWGQGTQVTVSS | low polyreactivity
QVQLVESGGGLVQAGGSLRLSCAPSRYIFYPYAMGWYRQAPGKEREFVATISYRGGSTYYADSVKGRFTISRDNAKNTVYLQMNSLKPEDTAVYYCAAREPWYYGYGDYWGHGTQVTVSS | high polyreactivity
QVQLVESGGGLVQAGGSLRLSCAASGIIFYVYAMGWYRQAPGKERELVAAISSTSSTYADSVKGRFTISRDNAKNTVYLQMNSLKPEDTAVFYCNTDYSDGYPAFDYWGQGTQVTVSS | low polyreactivity
QVQLVESGGGLVQAGGTLRLSCAASGRIFTHNAMGWYRQAPGKERELVAAITSGGRTTYADSVKGRFTISRDNAKNTVYLQMNSLKPEDTAVYYCNADTGLGSLDFDKRDYWGQGTQVNVSS | low polyreactivity
QVQLVESGGGLVQAGGSLRLSCAASGRTFGGNAMGWYRQAPGKERELVAVIRSTGGSTYYADSVKGRFTISRDNAKNTVYLQMNSLKPEDTAVYYCAKGRGRNFGYWGQGTQVTVSS | high polyreactivity
QVQLVESGGGLVQAGGSLRLSCAASGSTFAYNAMGWYRQAPGKERELVAAISYGGDDTYYADSVKGRFTISRDNAKNTVYLQMNSLKPEDTAVYYCNARSRTYRSALGNLYHYDYWGQGTQVTVSS | high polyreactivity
QVQLVESGGGLVQAGGSLRLSCAASGITFWHNTMGWYRQAPGKERELVAAISWTGGRTYYADSVKGRFTISRDNAKNTVNFQMNSLNPEDTAVNYCAADFSWTPSGNYDSWGQGTQVTVSS | low polyreactivity
QVQLVESGGGLVQAGGSLRLSCAASGRTFGYYAMGWYIQAPGKERELVAAISSRGGSTYYADSVKGRFTISRDNAKNTVYLQMNSLKPEDTAVYYCNTRWTNIHPRYDYWGQGTQVTVSS | high polyreactivity
QVQLVESGGGLVQAGGSLRLSCAASGSIFDFNALGWYRQAPGKERELVAAITYSGGRTYYADSVKGRFTISRDNGKYTVYLQMNSMKPEDTAVFYCAVNSFSGHGDYWGQGTQVTVSS | low polyreactivity
QVQLVESGGGLVQAGGSLRLSCGASGRTFQFYAMGWYRQAPGKERELVAAISRSSGSTTYADSVKGRFTISRDNAKNTVYLQMNSLKPEDTAVYYCAARRKGKARVPQYDYWGQGTQVTVSS | high polyreactivity
QVQLVESGGGLVQAGGSLRLSCAASGGIFTFNDMGWYRQAPGKERELVAAISRRGGSTYYADSVKGRFTISRDNAKNTVFLQMNSLKPEDTAVYYCAASSRRQRSEPYYYWGQGTQVTVSS | high polyreactivity

Sequence | polyreactivity (PSR sort gate)
QVQLVESGGGLVQAGGSLRLSCAASGSTSQPYDMGWYRQAPGTERELVASITNGGSTNYADSVKGRFTISRDNAKNTVYLQMNSLNPEDTAVDYCATRNGYSGTYGYWGQGTQVTVSS | low polyreactivity
QVQLVESGGGLVQAGGSLRLSCAASGSTFPPNAMGWSRQAPGKERELVAAISERGGSTYYADSVKGRFTISRDNAKNTVYLQMNSLKPEDTAVYYCAVDYYYLMYWGQGTQVTVSS | low polyreactivity
QVQLVESGGGLVQAGGSLRLSCAASGRIFKLYAMGWYRQAPGKERELVAAISTSAGSTNYADSVKGRFTISRDNEKNTVYLQMNSLKPEDTAVYYCAVAGVSTYYTYYYWGQGTQVTVSS | low polyreactivity
QVQLVESGGGLVQAGGSLRLSCAASGSIFVTYDMGWYRQAPGKERELVAGISGSGSTYYADSVKGRFTISRDNAKNTVYLQMNSLKPEDTAGYYCAAVWSRFLISYSTGWWFEYWGQGTQVTVSS | low polyreactivity
QVQLVESGGGIVQAGGSLRLSCAASGSTFVDNAMGWYRQAPGKERELVAAITTSVGSTYYADSVKGRFTISRDNAKNTVYLQMNSLKPEDTAVYYCAATVFSTYPYGYGSTFVRDDYWGQGTQVTVSS | low polyreactivity
QVQLVESGGGLVQAGGSLRLSCAASGSIFNWYAMGWYRQARGKERELVAAISYSGTRTYYADSVKGRFTISRDNAKNTVNLQLNSLKPEDTAVYYCNRAYYTRWYTKFDYWGQGTQVTVSS | high polyreactivity
QVQLVESGGGLVQAGGSLRLSCAASGSIFEPNAMGWYRQAPGKERELVAAISSGGSTYYADSVKGRFTISRDNAKNTVYLQMNSLKPEDTAVYYCAAYYHGYYSWGQGTQVTVSS | high polyreactivity
QVQLEESGGGLVQAGRSLRLSCAASGRTFNAYTMGWYRQAPGKERELVAAITSSGGNTYYADSVKGRFTISRDNVKNSVSLQINSLKPEDTAVYYCTTVYLYGTHDYWGQGTQVTLSS | low polyreactivity
QVQLVESGGGLVQAGGSLRLSCAASGRILPGYALGWYRQAPGKERELVAAIRGNGDSTYYADSVKGRFTISRDNAKNTVYLQMNSLKPEDTAVYYCAARRVSTIPRDSYRGRKYGYWGQGTQVTVSS | low polyreactivity
QVQLVESGGGLVQAGGSLRLSCASSGRIFNRYAMGWYRQAPGKERELVAAISSRGGSTYYADSVKGRFTISRDNAKNTVYLPMNSLKPEDTAVYYCAASAQKASYDWRYDYWGQGTQVTVSS | high polyreactivity
QVQLVESGGGLVQAGGSLRLSCAASGSIFEVNAMGWYRQAPGKERELVAAISCSGGSTYYADSVKGRFTISRDNAKNTVYLQMNSLKPEDTAVYYCAADWRQGLWYGYYYWGQGTQVTVSS | low polyreactivity
QVQLVESVGGLVQAGGSLRLSCAASGFTFRVNAMGWYIQAPGKERELVAAISSGGSTNYADTVKGRFTISRDNAKNTVYLQMNSLKPEDTAVYYCAKRFKYIYYWGQGTQVTVSS | high polyreactivity
QVQLVESGGRLVQAGGSLRLSCAASGNILRFNALGWYRQAPGKEWQLVAAISRSGGTTYFADSVKGRFTISRDTAKNTVYLQMNSLKPEDTAVYYCAARSRYGESPGYYWGQGTQVTVSS | high polyreactivity
QVQLVESGGGLVQAGGSLRLICAASGNIFVYYALGWYRQAPGKERELVAAITSDVSTYYADSVKGRFTISRDNAKNTVYLQLNSLKPEVTAVYYCATTGYGSYVIYWGQGTQVTVSS | low polyreactivity
QVQLVESGGGLVQAGGSLRLSCAAYGLIFTHNTMGWYRQAPGKERELVAAITTSGGTTYYADSVKGRFTISRDNAKNTVYLQMNSLKPEDTAVYYCNALYLSTRSGDYWGQGTQVTVSS | high polyreactivity
QVQLVESGGGLVQAGGSLRLSCAASGNIFGAYAMGWYRQAPGKERELVATINWSGTRTYADSVKGRFTISRDNAKNTVYLQMNSLKPEDTAVYYCATKIAGRYRTRYYWGQGTQVTVSS | high polyreactivity
QVQLVESGGGLVQAGGSLRLSCAASGSIFADNAKGWYRQAPGKEMDLVAAITWSGGSTYYADSVKGRFTISRDNAKNTVYLQMNSLKPEDTAVYYCNADDAVEYSYGGGTEFYYWGQGTQVTVSS | low polyreactivity
QVQLVESGGGLVQAGGSLRLSCAASGRIFGAYAMGWYIQAPGKERELVAAIDIRGGNTYYADSVKGRFTISRDNAKNTVYFQMNSQKPVDTAVYYCAADTWYDAYNYWGQGTQVTVSS | low polyreactivity
QVQLVESGGGLVQAGGSLRLSCAASGFTFKKYAMGWSRQAPGKERELVASITWSGGSTSYADSVKGRFTISRDNAKNSVYLQMNSLKPEDTAVFYCAAATFVYRLGYNRFDYWGQGTQVTVSS | high polyreactivity
QVQLVESGGGLVQAGGSLRLSCAASGRTFFGYAMGWYRQAPGKERELVATISGSGASTYYADSVKGRFTISRDNAKNTVYLQMNSLKPEDTAVYYCAVRLYFYQRNYYSWGQGTQVTVSS | high polyreactivity
